Here are results for 8 variants from paper PMC8458281, “Computational modeling and experimental validation of the EPI-X4/CXCR4 complex allows rational design of small peptide antagonists” (Communications Biology, 2021).

B1: EPI-X4 JM#21 [human] / CXCR4 wt (transfected 293T cells) [human] (parent complex)
chain 1: ILRWSRKLPCVS
chain 2: MEGISIYTSDNYTEEMGSGDYDSMKEPCFREENANFNKIFLPTIYSIIFLTGIVGNGLVILVMGYQKKLRSMTDKYRLHLSVADLLFVITLPFWAVDAVANWYFGNFLCKAVHVIYTVNLYSSVLILAFISLDRYLAIVHATNSQRPRKLLAEKVVYVGVWIPALLLTIPDFIFANVSEADDRYICDRFYPNDLWVVVFQFQHIMVGLILPGIVILSCYCIIISKLSHSKGHQKRKALKTTVILILAFFACWLPYYIGISIDSFILLEIIKQGCEFENTVHKWISITEALAFFHCCLNPILYAFLGAKFKTSAQHALTSVSRGSSLKILSKGKRGGHSSVSTESESSSFHSS

Variants of B1 are the subject of this test. As to the kind of experiment: 12G5 antibody competition assay, flow cytometry on transfected 293T cells; 2 h incubation; IC50 set to 100 µM if above the maximally used concentration; parent: 620 nM; read off a plot. In general terms: A flow cytometer gives signals particle by particle.
chain 2 MEGISIYTSDNYTEEMGSGDYDSMKEPCFREENANFNKIFLPTIYSIIFLTGIVGNGLVILVMGYQKKLRSMTDKYRLHLSVADLLFVITLPFWAVEAVANWYFGNFLCKAVHVIYTVNLYSSVLILAFISLDRYLAIVHATNSQRPRKLLAEKVVYVGVWIPALLLTIPDFIFANVSEADDRYICDRFYPNDLWVVVFQFQHIMVGLILPGIVILSCYCIIISKLSHSKGHQKRKALKTTVILILAFFACWLPYYIGISIDSFILLEIIKQGCEFENTVHKWISITEALAFFHCCLNPILYAFLGAKFKTSAQHALTSVSRGSSLKILSKGKRGGHSSVSTESESSSFHSS [chain 2 D97E]: the IC50 was roughly 1.8 µM.

chain 2 MEGISIYTSDNYTEEMGSGDYDSMKEPCFREENANFNKIFLPTIYSIIFLTGIVGNGLVILVMGYQKKLRSMTDKYRLHLSVADLLFVITLPFWAVSAVANWYFGNFLCKAVHVIYTVNLYSSVLILAFISLDRYLAIVHATNSQRPRKLLAEKVVYVGVWIPALLLTIPDFIFANVSEADDRYICDRFYPNDLWVVVFQFQHIMVGLILPGIVILSCYCIIISKLSHSKGHQKRKALKTTVILILAFFACWLPYYIGISIDSFILLEIIKQGCEFENTVHKWISITEALAFFHCCLNPILYAFLGAKFKTSAQHALTSVSRGSSLKILSKGKRGGHSSVSTESESSSFHSS [chain 2 D97S]: the IC50 was roughly 5.4 µM. In the case of chain 2 MEGISIYTSDNYTEEMGSGDYDSMKEPCFREENANFNKIFLPTIYSIIFLTGIVGNGLVILVMGYQKKLRSMTDKYRLHLSVADLLFVITLPFWAVTAVANWYFGNFLCKAVHVIYTVNLYSSVLILAFISLDRYLAIVHATNSQRPRKLLAEKVVYVGVWIPALLLTIPDFIFANVSEADDRYICDRFYPNDLWVVVFQFQHIMVGLILPGIVILSCYCIIISKLSHSKGHQKRKALKTTVILILAFFACWLPYYIGISIDSFILLEIIKQGCEFENTVHKWISITEALAFFHCCLNPILYAFLGAKFKTSAQHALTSVSRGSSLKILSKGKRGGHSSVSTESESSSFHSS [chain 2 D97T] it was roughly 3.7 µM; in that of chain 2 MEGISIYTSDNYTEEMGSGDYDSMKEPCFREENANFNKIFLPTIYSIIFLTGIVGNGLVILVMGYQKKLRSMTDKYRLHLSVADLLFVITLPFWAVDAVANWYFGNFLCKAVHVIYTVNLYSSVLILAFISLDRYLAIVHATNSQRPRKLLAEKVVYVGVWIPALLLTIPDFIFANVSEADDRYICDRFYPNDLWVVVFQFQHIMVGLILPGIVILSCYCIIISKLSHSKGHQKRKALKTTVILILAFFACWLPYYIGISIDSFILLEIIKQGCEFANTVHKWISITEALAFFHCCLNPILYAFLGAKFKTSAQHALTSVSRGSSLKILSKGKRGGHSSVSTESESSSFHSS [chain 2 E277A], roughly 0.27 µM; in that of chain 2 MEGISIYTSDNYTEEMGSGDYDSMKEPCFREENANFNKIFAPTIYSIIFLTGIVGNGLVILVMGYQKKLRSMTDKYRLHLSVADLLFVITLPFWAVDAVANWYFGNFLCKAAHVIYTVNLYSSVLILAFISLDRYLAIVHATNSQRPRKLLAEKVVYVGVWIPALLLTIPDFIFANVSEADDRYICDRFYPNDLWVVVFQFQHIMVGLILPGIVILSCYCIIISKLSHSKGHQKRKALKTTVILILAFFACWLPYYIGISIDSFILLEIIKQGCEFENTVHKWISITEALAFFHCCLNPILYAFLGAKFKTSAQHALTSVSRGSSLKILSKGKRGGHSSVSTESESSSFHSS [chain 2 L41A, chain 2 V112A], roughly 0.63 µM. As for chain 2 MEGISIYTSDNYTEEMGSGDYDSMKEPCFREENANFNKIFLPTIYSIIFLTGIVGNGLVILVMGYQKKLRSMTDKYRLHLSVADLLFVITLPFWAVEAVANWYFGNFLCKAAHVIYTVNLYSSVLILAFISLDRYLAIVHATNSQRPRKLLAEKVVYVGVWIPALLLTIPDFIFANVSEADDRYICDRFYPNDLWVVVFQFQHIMVGLILPGIVILSCYCIIISKLSHSKGHQKRKALKTTVILILAFFACWLPYYIGISIDSFILLEIIKQGCEFENTVHKWISITEALAFFHCCLNPILYAFLGAKFKTSAQHALTSVSRGSSLKILSKGKRGGHSSVSTESESSSFHSS [chain 2 D97E, chain 2 V112A], the IC50 was roughly 0.46 µM. As for chain 2 MEGISIYTSDNYTEEMGSGDYDSMKEPCFREENANFNKIFLPTIYSIIFLTGIVGNGLVILVMGYQKKLRSMTDKYRLHLSVADLLFVITLPFWAVDAVANWYFGNFLCKAAHVIYTVNLYSSVLILAFISLDRYLAIVHATNSQRPRKLLAEKVVYVGVWIPALLLTIPDFIFANVSEADDRYICDRFYPNDLWVVVFQFQHIMVGLILPGIVILSCYCIIISKLSHSKGHQKRKALKTTVILILAFFACWLPYYIGISIDSFILLEIIKQGCEFENTVHKWISITEALAFFHCCLNPILYAFLGAKFKTSAQHALTSVSRGSSLKILSKGKRGGHSSVSTESESSSFHSS [chain 2 V112A], the IC50 was roughly 3.4 µM. Regarding chain 2 MEGISIYTSDNYTEEMGSGDYDSMKEPCFREENANFNKIFLPTIYSIIFLTGIVGNGLVILVMGYQKKLRSMTDKYRLHLSVADLLFVITLPFWAVDAVANWYFGNFLCKALHVIYTVNLYSSVLILAFISLDRYLAIVHATNSQRPRKLLAEKVVYVGVWIPALLLTIPDFIFANVSEADDRYICDRFYPNDLWVVVFQFQHIMVGLILPGIVILSCYCIIISKLSHSKGHQKRKALKTTVILILAFFACWLPYYIGISIDSFILLEIIKQGCEFENTVHKWISITEALAFFHCCLNPILYAFLGAKFKTSAQHALTSVSRGSSLKILSKGKRGGHSSVSTESESSSFHSS [chain 2 V112L], the IC50 is roughly 0.4 µM.

One may read the IC50 as the concentration at which inhibition is half-maximal.
